According to patent US20200131274A1 (CRESCENDO BIOLOGICS, published 2020):
Where “and” joins values, the source holds several entries; their conditions need not be identical. Equal values may be shown once.

B1: single VH domain antibody 3.1 (VHH)
VHH: EVQLVESGGGVVQPGRSLRLSCAASGFPLISYGMHWVRQAPGKGLEWVAFMTYDGSNRYYADSVKGRFTISRDNSKNTLYLQMNSLRDEDTALYYCARDRIVGGRVPDAFDIWGQGTMVTVSS
notes: Human single VH domain antibody (Humabody); C-terminal His tag, residues not tied; also called VH3.1
B2: single VH domain antibody 1.8 (VHH)
VHH: EVQLLESGGGLVQPGGSLRLSCAASGFSFSSYAMSWVRQAPGKGLEWVSSIGENDGTTDYADSVKGRFTISRDNSKNTLYLQMNSLRVEDTAVYYCVKDGVHWGQGTLVTVSS
notes: Human single VH domain antibody (Humabody)
B3: single VH domain antibody 2.1 (VHH)
VHH: EVQLVESGGGVVQPGRSLRLSCAASGFSFSGYGMHWVRQAPGKGLEWVAYISYDGSNKYYADSVKGRFTISRDNSKNTLYLQMNSLRAEDTAVYYCAKDPAWGLRLGESSSYDFDIWGQGTMVTVSS
notes: Human single VH domain antibody (Humabody); tested with a C-terminal His tag; 71-95; also called VH 2.1; VH2.1
B4: single VH domain antibody 2.17 (VHH)
VHH: EVQLVESGGGVVQPGRSLRLSCAASGFSFSGYGMHWVRQAPGKGLEWVAYISYDASNKYYADNVKGRFTISRDNSKNTLYLQMNSLRAEDTAVYYCAKDPAWGLRLGESSSYDFDIWGQGTMVTVSS
notes: Human single VH domain antibody (Humabody); C-terminal His tag, residues not tied
B5: single VH domain antibody 2.22 (VHH)
VHH: EVQLVESGGGVVQPGRSLRLSCAASGFSFSGYGTHWVRQAPGKGLEWVAYISYDGSNKYYAAPVKGRFTISRDNSKNTLYLQMNSLRAEDTAVYYCAKDAAWGLRLGESSSYDFDIWGQGTMVTVSS
notes: as for B4
B6: single VH domain antibody 5.1 (VHH)
VHH: QVQLVESGGGVVQPGRSLRLSCAASGFTFNNYGMHWVRQAPGKGLEWVAIISYDGNTKYYTDSVKGRFTISRDNSKNTLYLQMNSLRVEDTAVYYCAKGLWPSDVWGQGTTVTVSS
notes: Human single VH domain antibody (Humabody); purified via the C-terminal His-tag, residues not tied

Legend:
[1] = molecular target: T1, recombinant human PSMA (R&D, cat. no. 4234-ZN) (human, UniProt Q04609 44-750); test: Octet RED384 BLI, PSMA amine-coupled to sensor, 1:1 model
T1 construct: Bought protein; also called rhPSMA; Recombinant PMSA

[2] = molecular target: T2, cynomolgus PSMA, full-length, on CHO cells (cynomolgus, UniProt A0A2K5VNZ0 1-750); test: FMAT Mirrorball direct cell binding, purified His-tagged VH titrated on CHO cells expressing cynomolgus PSMA, FL2 median binding signal [panel cynoPSMA-CHO binding]
T2 construct: whole, on cells; also called cynoPSMA; cyno PSMA

[3] = molecular target: T3, human prostate specific membrane antigen (PSMA), full-length, on cells (human, UniProt Q04609 1-750); test: FMAT Mirrorball direct cell binding, purified His-tagged VH titrated on CHO cells expressing human PSMA, FL2 median binding signal [panel huPSMA-CHO binding]
T3 construct: also called huPSMA; human PSMA

[4] = molecular target: T3, human prostate specific membrane …; test: FMAT Mirrorball direct cell binding, purified His-tagged VH titrated on LNCap cells, FL2 median binding signal [panel LNCap cell binding]
[5] = molecular target: T3, human prostate specific membrane …; test: FMAT direct cell binding, DU145 PSMA cells
[6] = molecular target: T3, human prostate specific membrane …; test: FMAT direct cell binding, CHO human PSMA cells
[7] = molecular target: T1, recombinant human PSMA (R&D, cat. no. …); test: Octet RED384 BLI, PSMA on sensor, Table 21 c; Table 21 part c), not part b) (0.85 nM for clone 1.8)
[8] = molecular target: T3, human prostate specific membrane …; test: FMAT cell binding, huPSMA CHO 1A10 cells, after 0 days in human serum at 37 C
[9] = molecular target: T3, human prostate specific membrane …; test: FMAT cell binding, huPSMA CHO 1A10 cells, after 4 days in human serum at 37 C
[10] = molecular target: T1, recombinant human PSMA (R&D, cat. no. …); test: Octet RED384 BLI, PSMA on sensor, VH series from 0.375 ug/ml
[11] = molecular target: T1, recombinant human PSMA (R&D, cat. no. …); test: Octet RED384 BLI, PSMA on sensor, Table 21 c
[12] = molecular target: T1, recombinant human PSMA (R&D, cat. no. …); test: Octet RED384 BLI, PSMA on sensor, Table 21 b
[13] = molecular target: T3, human prostate specific membrane …; test: cell-based or functional assay
[14] = molecular target: T3, human prostate specific membrane …; test: cell-based or functional assay; remark: listed apart in the source
[15] = molecular target: T2, cynomolgus PSMA, full-length, on CHO …; test: cell-based or functional assay
[16] = molecular target: T3, human prostate specific membrane …; test: FMAT cell binding, huPSMA CHO 1A10 cells, after 7 days in human serum at 37 C
[17] = molecular target: T3, human prostate specific membrane …; test: FMAT direct cell binding, LNCap cells
[18] = molecular target: T3, human prostate specific membrane …; test: FMAT cell binding, huPSMA CHO 1A10 cells, after 1 day in human serum at 37 C
[19] = molecular target: T2, cynomolgus PSMA, full-length, on CHO …; test: FMAT direct cell binding, CHO cyno PSMA cells
[20] = molecular target: T1, recombinant human PSMA (R&D, cat. no. …); test: Octet RED384 BLI, PSMA on sensor, VH series from 0.375 ug/ml; remark: listed apart in the source
[21] = molecular target: T3, human prostate specific membrane …; test: FMAT cell binding, huPSMA CHO 1A10 cells, after 1 day in human serum at 37 C; remark: listed apart in the source
[22] = molecular target: T3, human prostate specific membrane …; test: FMAT cell binding, huPSMA CHO 1A10 cells, after 4 days in human serum at 37 C; remark: listed apart in the source
[23] = molecular target: T2, cynomolgus PSMA, full-length, on CHO …; test: FMAT direct binding on CHO cells expressing cynomolgus PSMA, VH kept 8 days at 40 °C, FL2 median mean fluorescence
[24] = molecular target: T3, human prostate specific membrane …; test: cell-based or functional assay; remark: listed apart in the source
[25] = molecular target: T2, cynomolgus PSMA, full-length, on CHO …; test: cell-based or functional assay; remark: listed apart in the source
[26] = molecular target: T2, cynomolgus PSMA, full-length, on CHO …; test: FMAT direct binding on CHO cells expressing cynomolgus PSMA, VH not heated (4 °C, day 0), FL2 median mean fluorescence
[27] = molecular target: T1, recombinant human PSMA (R&D, cat. no. …); test: HTRF binding assay: His-Myc tagged VH, 3 nM biotinylated PSMA, streptavidin cryptate and anti-Myc Alexa Fluor 647; VH kept 0-7 days at 37 °C in cynomolgus monkey serum; Delta F% binding signal
[28] = molecular target: T3, human prostate specific membrane …; test: FMAT cell binding, huPSMA CHO 1A10 cells, after 7 days in human serum at 37 C; remark: listed apart in the source
[29] = molecular target: T3, human prostate specific membrane …; test: FMAT cell binding, huPSMA CHO 1A10 cells, after 0 days in human serum at 37 C; remark: listed apart in the source
[30] = molecular target: T2, cynomolgus PSMA, full-length, on CHO …; test: cell-based or functional assay; remark: listed apart in the source
[31] = molecular target: T1, recombinant human PSMA (R&D, cat. no. …); test: Octet RED384 BLI, PSMA on sensor, VH purified from periplasmic extracts

T3 sequence (Q04609 whole entry): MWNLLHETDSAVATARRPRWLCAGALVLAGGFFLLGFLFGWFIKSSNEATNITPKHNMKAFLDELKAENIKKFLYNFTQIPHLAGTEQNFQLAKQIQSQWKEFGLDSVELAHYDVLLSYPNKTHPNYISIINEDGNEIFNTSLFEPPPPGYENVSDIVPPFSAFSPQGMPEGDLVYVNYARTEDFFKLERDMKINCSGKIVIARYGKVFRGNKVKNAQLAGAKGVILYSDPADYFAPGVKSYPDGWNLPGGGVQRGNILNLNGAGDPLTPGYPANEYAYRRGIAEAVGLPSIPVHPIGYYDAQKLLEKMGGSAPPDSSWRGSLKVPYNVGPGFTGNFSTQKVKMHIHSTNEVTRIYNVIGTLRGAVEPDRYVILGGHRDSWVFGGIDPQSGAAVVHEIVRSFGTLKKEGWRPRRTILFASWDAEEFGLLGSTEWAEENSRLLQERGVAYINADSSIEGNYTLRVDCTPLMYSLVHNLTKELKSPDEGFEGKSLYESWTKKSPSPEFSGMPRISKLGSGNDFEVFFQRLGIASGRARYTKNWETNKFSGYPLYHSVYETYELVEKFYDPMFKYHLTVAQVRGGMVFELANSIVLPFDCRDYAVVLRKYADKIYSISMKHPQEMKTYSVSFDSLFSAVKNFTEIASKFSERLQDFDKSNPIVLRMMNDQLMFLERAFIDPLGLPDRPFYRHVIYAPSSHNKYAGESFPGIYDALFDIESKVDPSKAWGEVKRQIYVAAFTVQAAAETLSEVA
T1 sequence (Q04609 44-750 limits assumed): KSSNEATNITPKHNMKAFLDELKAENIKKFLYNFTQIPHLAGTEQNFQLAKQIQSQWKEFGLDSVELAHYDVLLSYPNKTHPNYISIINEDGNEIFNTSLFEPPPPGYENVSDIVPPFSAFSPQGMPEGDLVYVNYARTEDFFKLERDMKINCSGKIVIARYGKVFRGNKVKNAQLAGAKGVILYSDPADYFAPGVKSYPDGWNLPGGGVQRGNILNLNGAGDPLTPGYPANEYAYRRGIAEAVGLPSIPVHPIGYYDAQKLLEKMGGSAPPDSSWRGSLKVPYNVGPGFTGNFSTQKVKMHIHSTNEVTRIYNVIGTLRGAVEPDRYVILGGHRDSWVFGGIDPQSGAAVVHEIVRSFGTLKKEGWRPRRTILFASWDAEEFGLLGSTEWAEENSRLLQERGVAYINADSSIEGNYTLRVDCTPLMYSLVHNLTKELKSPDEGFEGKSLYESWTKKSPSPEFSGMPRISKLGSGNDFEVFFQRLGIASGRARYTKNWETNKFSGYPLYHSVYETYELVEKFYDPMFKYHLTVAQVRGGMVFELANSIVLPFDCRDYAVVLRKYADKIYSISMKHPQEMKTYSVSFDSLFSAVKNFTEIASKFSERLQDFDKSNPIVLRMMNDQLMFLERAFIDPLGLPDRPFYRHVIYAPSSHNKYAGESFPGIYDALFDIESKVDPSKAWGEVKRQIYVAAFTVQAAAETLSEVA

Row | Binder | Kd [1] | koff [1] | EC50 (read off the curve) [2] | EC50 [5] | EC50 [6] | pHrodo Green internalization assay, human PSMA Average EC50 (M) [13] | His-ZAP cell killing, human PSMA Average EC50 [14] | His-ZAP cell killing, cyno PSMA EC50 [15] | EC50 [17] | EC50 [19] | Kd [20] | koff [20] | EC50 [21] | EC50 [22] | EC50 [28] | EC50 [29] | further results
1 | B1 | 3.78 nM | 0.000452 s⁻¹ | ~2 nM | – | – | – | – | – | – | – | – | – | – | – | – | – | EC50 (read off the curve) [3]: ~2 nM; EC50 (read off the curve) [4]: ~2 nM
2 | B2 | – | – | – | 0.0945 nM | 0.103 nM | 5e-10 M and 1.2e-09 M | 0.026 nM and 0.04 nM | 1.4 nM | 0.147 nM | 0.31 nM | – | – | – | – | – | – | Kd [7]: 1.95 nM; EC50 [8]: 0.409 nM and 0.17 nM; EC50 [9]: 0.496 nM and 0.25 nM; Kd [10]: 1.95 nM; koff [10]: 0.00104 s⁻¹; koff [11]: 0.00104 s⁻¹; Kd [12]: 0.85 nM; koff [12]: 0.00068 s⁻¹; EC50 [16]: 0.542 nM and 0.27 nM; EC50 [18]: 0.486 nM and 0.22 nM
3 | B3 | 1.64 nM | 0.000456 s⁻¹ | ~0.6 nM | 0.23 nM | 0.11 nM | 8e-10 M | 0.014 nM | 0.052 nM | 0.0607 nM | 0.367 nM | 0.32 nM | 0.000228 s⁻¹ | 0.254 nM | 0.26 nM | 0.301 nM | 0.249 nM | EC50 (read off the curve) [23]: ~2 nM; IC50 (read off the curve): His-ZAP saporin cell killing, human-PSMA CHO, % Control (Cell Titer-Glo) [24]: ~0.04 nM; IC50 (read off the curve): His-ZAP saporin cell killing, cyno-PSMA CHO, % Control (Cell Titer-Glo) [25]: ~0.1 nM; EC50 (read off the curve) [26]: ~2 nM; EC50 (read off the curve) [27]: ~1 nM
4 | B4 | – | – | – | 0.218 nM | 0.1 nM | 8e-10 M | 0.035 nM | 0.07 nM | 0.0113 nM | 0.308 nM | 0.76 nM | 0.000726 s⁻¹ | 0.21 nM | 0.228 nM | 0.238 nM | 0.23 nM | –
5 | B5 | – | – | – | 0.229 nM | 0.123 nM | 6.7e-10 M | 0.069 nM | 0.18 nM | 0.153 nM | 0.613 nM | 2.62 nM | 0.00244 s⁻¹ | 0.291 nM | 0.34 nM | 0.328 nM | 0.305 nM | –
6 | B6 | – | – | – | – | – | – | – | – | – | – | – | – | – | – | – | – | EC50 (read off the curve): pHrodo Green internalisation signal FL2, CHO cells expressing cynomolgus PSMA [30]: ~2e-09 M; Kd [31]: 30 nM; koff [31]: 0.0091 s⁻¹
